The record followed here is patent US20200299373A1.

Experiment [1] has as its target recombinant human FAM19A5 protein (His-tagged) (human) (UniProt Q7Z5A7). Briefly: ELISA on N'-Term His FAM19A5, fit of the titration; R2 printed 0.9813. A general note: An ELISA detects its analyte on a solid surface through an enzyme-linked reagent.
Experiment [2] has the same target. Briefly: ELISA on N'-Term His FAM19A5, fit of the titration (OD 492 nm); R2 printed 0.9813.
Experiment [3] has the same target. As to the kind of experiment: ELISA on N'-Term His FAM19A5, fit of the titration (OD 492 nm); R2 printed -0.2016.
Experiment [4] has the same target. Briefly: ELISA on N'-Term His FAM19A5, fit of the titration; poor fit, R2 printed -0.2016.
The target is the same in experiment [5]. Briefly: ELISA on N'-Term His FAM19A5, fit of the titration (OD 492 nm); R2 printed 0.1299.
For experiment [6] the target is unchanged. Briefly: two-site sandwich ELISA; capture antibody P2-A03; biotinylated detection antibody 2-13; antigen in ng/mL.
Experiment [7] has the same target. Briefly: ELISA on N'-Term His FAM19A5, fit of the titration; R2 printed 0.9303; the text gives about 2.77 nM for 2-13, which on the sheet stands under 13F7.
Experiment [8] has the same target. Briefly: two-site sandwich ELISA; capture antibody 3-2; biotinylated detection antibody 2-13; antigen in ng/mL.
Experiment [9] has the same target. Briefly: two-site sandwich ELISA; capture antibody 1-65; biotinylated detection antibody 2-13; antigen in ng/mL.
Experiment [10] shares this target. As to the kind of experiment: two-site sandwich ELISA; capture antibody 1-65; S/N = O.D. at 10 ng/mL antigen / O.D. at 0 ng/mL; O.D. in column 0 printed 0.44.
Experiment [11] shares this target. As to the kind of experiment: two-site sandwich ELISA; capture antibody 13B4; biotinylated detection antibody 2-13; antigen in ng/mL.
Experiment [12] shares this target. Briefly: ELISA, His-FAM19A5 (positive control) coated on the plate, absorbance at 492 nm.
Experiment [13] shares this target. As to the kind of experiment: two-site sandwich ELISA; capture antibody P2-F11; S/N = O.D. at 10 ng/mL antigen / O.D. at 0 ng/mL; O.D. in column 0 printed 0.4.
Experiment [14] shares this target. Briefly: ELISA on coated FAM19A5, as in Example 6.
Experiment [15] shares this target. Briefly: two-site sandwich ELISA; capture antibody 13B4; S/N = O.D. at 10 ng/mL antigen / O.D. at 0 ng/mL; grey cell; cells 10 and 0 under recheck.
The target is the same in experiment [16]. Briefly: ELISA on N'-Term His FAM19A5, fit of the titration (OD 492 nm); R2 printed 0.9303.
The target is the same in experiment [17]. As to the kind of experiment: two-site sandwich ELISA; capture antibody P2-A03; S/N = O.D. at 10 ng/mL antigen / O.D. at 0 ng/mL; O.D. in column 0 printed 0.39.
The target is the same in experiment [18]. Briefly: two-site sandwich ELISA; capture antibody 3-2; S/N = O.D. at 10 ng/mL antigen / O.D. at 0 ng/mL; O.D. in column 0 printed 0.38.
The target is the same in experiment [19]. As to the kind of experiment: two-site sandwich ELISA; capture antibody P2-F11; biotinylated detection antibody 2-13; antigen in ng/mL.
Experiment [20] shares this target. Briefly: ELISA on N'-Term His FAM19A5, fit of the titration; R2 printed 0.9105.
The target is the same in experiment [21]. As to the kind of experiment: ELISA on N'-Term His FAM19A5, fit of the titration (OD 492 nm); R2 printed 0.9105.
Experiment [22] has the same target. As to the kind of experiment: ELISA on N'-Term His FAM19A5, fit of the titration (OD 492 nm); R2 printed 0.9422.
For experiment [23] the target is unchanged. As to the kind of experiment: ELISA on N'-Term His FAM19A5, fit of the titration; R2 printed 0.9422.
Experiment [24] shares this target. As to the kind of experiment: ELISA on N'-Term His FAM19A5, fit of the titration (OD 492 nm); R2 printed 0.2002.

As a reminder, the Kd is the equilibrium constant for the complex coming apart.

B1: P1-A03 (antibody, V domains shown)
VH: QSVEESGGRLVTPGTPLTLTCTVSGFSLSSDYMSWVRQAPGEGLEWIGIIYPSTTTYYASWAKGRFTISKTSSTTVELKMTSLTTEDTATYFCARGSNWSSGMNLWGPGTLVTVSS
VL: ELVMTQTPPSLSASVGETVRIRCLASEDIYSGISWYQQKPEKPPTLLISGASNLESGVPPRFSGSGSGTDYTLTIGGVQAEDAATYYCLGGYSYSSTGLTFGAGTNVEIKR
Turning to B1, the Kd in experiment [1] was 7.5 nM. For the same molecule, the Bmax in experiment [2] is 2.45.

B2: P1-A08 (antibody, V domains shown)
VH: QSLEESGGRLVTPGTPLTLTCTASGFSLSTYYMSWVRQAPGKGLEWIGIVYPSGTTYYANWAKGRFTISTASTTVDLMITSPTTEDTATYFCARGDSFGYGLWGPGTLVTVSS
VL: ELVLTQSPSVQVNLGQTVSLTCTADTLSRSYASWYQQKPGQAPVLLIYRDTSRPSGVPDRFSGSSSGNTATLTISGAQAGDEADYYCATSDGSGSNYQYVFGGGTQLTVTR
Take B2: in experiment [3], the Bmax was determined as 0.479. In addition, the Kd in [4] came to 6.95 nM.

B3: P1-F02 (antibody, V domains shown)
VH: QSLEESGGRLVTPGTPLTLTCTASGFSLSNYYMGWVRQAPGEGLEWIGIIYASGSTYYASWAKGRFTISKTSTTVDLKMTSLTTEDTATYFCARIDIGVGDYGWAYDRLDLWGQGTLVTVSS
VL: ELDMTQTPPSLSASVGETVRIRCLASEDIYSGISWYQQKPGKPPTLLIYGASNLESGVPPRFSGSGSGTDYTLTIGGVQAEDAATYYCLGGYSYSSITFGAGTNVEIKR
Take B3: in experiment [5], the Bmax was 0.172.

B4: anti-FAM19A5 antibody 2-13 (antibody, V domains shown)
VH: AVTLDESGGGLQTPGGALSLVCKASGFTFSSHGMFWVRQTPGKGLEYVAEITNDGSGTNYGSAVKGRATISRDNGQSTVRLQLNNLRAEDTGTYFCARSTYECPGGFSCWGDTGQIDAWGHGTEVIVSS
VL: ALTQPSSVSANPGETVKITCSGGSYSYGWFQQKSPGSALVTVIYWDDERPSDIPSRFSGALSGSTNTLTITGVQADDEAVYFCGTEDISGTAGVFGAGTTLTVL
Regarding B4, the O.D., antigen 100 is 1.88 in experiment [6]; 2.01 in experiment [8]; 2.02 in experiment [9]; 1.48 in experiment [11]; 1.94 in [19]. Moreover, the O.D., antigen column 10 was found to be 1.07 in experiment [6], 1.97 in experiment [8], 1.8 in [9] and 1.91 in [19]. Besides, the Kd is 1.96 nM in experiment [7] and 2.77 nM in experiment [14]. Also, the S/N in [10] turned out to be 4.1; in [13] it was 4.8; in experiment [15], 1.1; in experiment [17], 2.7; in experiment [18], 5.1. Moreover, the O.D. in [12] worked out at 3.6. In addition, the Bmax in experiment [16] came to 2.41.

B5: P2-A01 (antibody, V domains shown)
VH: QEQLVESGGRLVTPGTPLTLSCTASGFFLSGYYMSWVRQAPGKGLEWIGIIYPSGSTDYASWAKGRFTISKTSTTVDLKITTPTTEDTATYFCARVAGYVGYGYETFFDIWGPGTLVTVSL
VL: ELVMTQTPPSLSASVGETVRIRCLASEDIYSGISWYQQKPGKPPTLLIYGASNLESGVPPRFSGSGSGSDYTLTIGGVQAEDAATYYCLGGVTYSSTGTHLTFGAGTNVEIKR
Take B5: in experiment [20], the Kd is 9.09 nM. Besides, the Bmax in experiment [21] is 1.19.

B6: P2-C12 (antibody, V domains shown)
VH: QSLEESGGRLVTPGTPLTLTCTVSGFSLSTYAVTWVRQAPGKGLEWIGYINWRGGTSYANWAKGRFTISKTSSTTVDLKMTSPTTEDTATYFCARDASSGAAFGSYGMDPWGPGTLVTVSS
VL: ELDMTQTPSSVSAAVGGTVTIKCQASQSISSYLSWYQQKPGQPPKLLIYEASKLASGVPSRFSGSGYGTEFTLTISDLECADAATYYCQQGYSSTNVWNAFGGGTNVEIKR
With B6, the Bmax in experiment [22] is 1.73. For the same molecule, the Kd in experiment [23] stood at 7.64 nM.

B7: P2-F07 (antibody, V domains shown)
VH: QSLEESGGRLVTPGTPLTLTCTASGFSLSSYYMNWVRQAPGKGLEWIGIIYPSGTTYYAGWAKGRFTISKTSTTVDLKITSPTSEDTATYFCARTVSGYFDIWGPGTLVTVSL
VL: ELDLTQTPPSLSASVGGTVTINCLASEDIYSALAWYQQKPGKPPTLLISGTSNLESGVPPRFSGSGSGTDYTLTIGGVQAEDAATYFCQGYSSYPLTFGAGTNVEIKR
As for B7, in [24], the Bmax was found to be 0.134.
